This assay has as its target cdk2/cyclin A complex (UniProt P24941 1-298; P20248 1-432). Briefly: cell-based or functional assay.

Where no end group is shown, it is not given here.

Here are results for one molecule from patent US20160145299A1 (CENTRE NATIONAL DE LA RECHERCHE SCIENTIFIQUE, published 2016).

B1: Peptide targeting CDK/Cyclin C4: KKQVRMAHLVLT (SEQ ID No: 8) (peptide)
peptide: KKQVRMAHLVLT
modifications: also: fluorescent label Cy5 or FITC, position not given here
Consider B1, for which the “IC50 of cell proliferation, Hela, C4 delivered with Short6” value stood at 80 nM; the “IC50 of cell proliferation, Hela, C4 delivered with short7” value was 45 nM; the “IC50 of cell proliferation, Hela, C4 delivered with short11” value was 150 nM; the “IC50 of cell proliferation, MCF7, C4 delivered with Short6” value worked out at 50 nM. Moreover, the “IC50 of cell proliferation, MCF7, C4 delivered with short7” value was 80 nM and the “IC50 of cell proliferation, MCF7, C4 delivered with short11” value amounted to 200 nM.
